Measurements: PMC9723649

Key:
purified protein [1] = substrate: N[C@@H](CO)C(=O)O; test: purified protein
purified protein [2] = substrate: Nc1ncnc2c1ncn2[C@@H]1O[C@H](COP(=O)(O)OP(=O)(O)OP(=O)(O)O)[C@@H](O)[C@H]1O; test: purified protein

B1: SARS2 (human mitochondrial seryl-tRNA synthetase, mature form) (Homo sapiens) (protein)
chain: TTEKRNRNLLYEYAREGYSALPQLDIERFCACPEEAAHALELRKGELRSADLPAIISTWQELRQLQEQIRSLEEEKAAVTEAVRALLANQDSGEVQQDPKYQGLRARGREIRKELVHLYPREAQLEEQFYLQALKLPNQTHPDVPVGDESQARVLHMVGDKPVFSFQPRGHLEIGEKLDIIRQKRLSHVSGHRSYYLRGAGALLQHGLVNFTFNKLLRRGFTPMTVPDLLRGAVFEGCGMTPNANPSQIYNIDPARFKDLNLAGTAEVGLAGYFMDHTVAFRDLPVRMVCSSTCYRAETNTGQEPRGLYRVHHFTKVEMFGVTGPGLEQSSQLLEEFLSLQMEILTELGLHFRVLDMPTQELGLPAYRKFDIEAWMPGRGRFGEVTSASNCTDFQSRRLHIMFQTEAGELQFAHTVNATACAVPRLLIALLESNQQKDGSVLVPPALQSYLGTDRITAPTHVPLQYIGPNQPRKPGLPGQPAVS
Purified protein [1]
  Km: 2400 ± 40 µM
Purified protein [2]
  Km: 112.83 ± 10.54 µM
